One protein from article doi:10.1101/2024.06.07.597859 (bioRxiv, 2024) can be followed below.

Where “and” joins values, the source holds several entries; their conditions need not be identical. Equal entries are not always repeated.

The series concerns the molecule itself. As to the kind of experiment: cross-linking.

B1: Plasmodium falciparum tRNA-splicing endonuclease PfTSEN1 (enzyme, UniProt A0A144A1E9 1-220, looked up)
chain: MKIIYEFKKEYYEIILNENNADDNVIDLFEKNTNKCNIEIKPYDDINSDLLDFDQFKMFNIDKDDIKKKNEDKKDEDRIKYILDKESYNNSIDKLNDNSCDESCYITDDELCKQINNPFDNTYNNKFVVKYKEYFEENSFIVKKGDIYGADFLLYITEQKYAHSLYAVYIIYKHYILRDLIRILRVSHSIKKKVILILWNELNCFNISDTLVYIKSYKYK
By stoichiometry N is commonly meant a count of units in the complex or per binding partner. Turning to B1, the “stoichiometry N” value was 2 and 3 and 4.
